The source of these data is publication PMC9408933, “Discovery of the Key Mutation Site Influencing the Thermostability of Thermomyces lanuginosus Lipase by Rosetta Design Programs” (International Journal of Molecular Sciences, 2022).

For the data set, the system named is T1, CCCCCCCCCCCCCCCC(=O)Oc1ccc([N+](=O)[O-])cc1.
T1 construct: N-terminal His-tag, secreted from Pichia pastoris GS115 (pPIC9K), Ni-NTA purified
The data set is described as follows: p-nitrophenol release, Michaelis-Menten fit. It is filed as biochemical, Thermomyces lanuginosus. As to conditions: 37 °C, pH 9.0, 100 mM Tris-HCl, pNPP 0.08-10.00 mM, apparent Km. The source says: p-nitrophenol release, Michaelis-Menten fit on TLL (Thermomyces lanuginosus lipase)

As for “TLL (Thermomyces lanuginosus lipase) (Thermomyces lanuginosus; R231V)”, the Km amounted to 0.14 ± 0.02 mM, the Vmax was found to be 260 µmol/min/mg, the catalytic constant (kcat) came out at 713 ± 8.11 s⁻¹ and the kcat/Km was determined as 5.09e+06 ± 57900 M⁻¹ s⁻¹.

Take “TLL (Thermomyces lanuginosus lipase) (Thermomyces lanuginosus; R231A)”: the Km was 0.23 ± 0.03 mM, the Vmax came to 384 µmol/min/mg, the kcat amounted to 1220 ± 43 s⁻¹ and the kcat/Km stood at 5.31e+06 ± 187000 M⁻¹ s⁻¹.

As for “TLL (Thermomyces lanuginosus lipase) (Thermomyces lanuginosus; R231Q)”, the Michaelis constant (Km) is listed as 0.23 ± 0.03 mM, the Vmax was found to be 354 µmol/min/mg, the kcat stood at 788 ± 7.98 s⁻¹ and the kcat/Km was 3.42e+06 ± 34700 M⁻¹ s⁻¹.

In the case of “TLL (Thermomyces lanuginosus lipase) (Thermomyces lanuginosus; R231M)”, the Km came to 0.19 ± 0.03 mM, the Vmax was found to be 319 µmol/min/mg, the kcat was 765 ± 17.6 s⁻¹ and the kcat/Km was 4.02e+06 ± 92400 M⁻¹ s⁻¹.

As to “TLL (Thermomyces lanuginosus lipase) (Thermomyces lanuginosus; R231H)”, the Km was found to be 0.18 ± 0.02 mM, the Vmax turned out to be 330 µmol/min/mg, the kcat came to 790 ± 22.7 s⁻¹ and the kcat/Km is 4.39e+06 ± 126000 M⁻¹ s⁻¹.

Take “TLL (Thermomyces lanuginosus lipase) (Thermomyces lanuginosus; R231T)”: the Km is on record as 0.19 ± 0.03 mM, the Vmax was 344 µmol/min/mg, the kcat came to 1090 ± 27.6 s⁻¹ and the kcat/Km was 5.75e+06 ± 146000 M⁻¹ s⁻¹.

For the substance “TLL (Thermomyces lanuginosus lipase) (Thermomyces lanuginosus; R231K)”, the Km is on record as 0.17 ± 0.02 mM, the Vmax came to 345 µmol/min/mg, the kcat stood at 1100 ± 14 s⁻¹ and the kcat/Km came out at 6.5e+06 ± 82500 M⁻¹ s⁻¹.

As to “TLL (Thermomyces lanuginosus lipase) (Thermomyces lanuginosus; R231P)”, the Km was 0.16 ± 0.02 mM, the Vmax is 339 µmol/min/mg, the kcat came to 1387 ± 12.8 s⁻¹ and the kcat/Km amounted to 8.669e+06 ± 80300 M⁻¹ s⁻¹.

On to “TLL (Thermomyces lanuginosus lipase) (Thermomyces lanuginosus; R231I)”, for which the Km was 0.18 ± 0.02 mM, the Vmax is 303 µmol/min/mg, the kcat came to 767 ± 22.8 s⁻¹ and the kcat/Km was determined as 4.26e+06 ± 127000 M⁻¹ s⁻¹.

Consider “TLL (Thermomyces lanuginosus lipase) (Thermomyces lanuginosus; R231E)”, for which the Km is 0.14 ± 0.02 mM, the Vmax turned out to be 301 µmol/min/mg, the kcat turned out to be 1230 ± 27.6 s⁻¹ and the kcat/Km worked out at 8.79e+06 ± 197000 M⁻¹ s⁻¹.
